# B1: C10orf62 (parent)
# chain: TSECPSDKDKSPESHKAKNESWIK
# Variants of: B1
# Assay: protein stability index of a GFP-peptide fusion (GPS, HEK-293T) (PSI 1-6); higher = more stable
# Settings: c terminus: a fixed tail appended
# 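Also: lentivirally expressed fusions sorted by FACS into six bins by GFP to DsRed ratio, PSI derived from sequencing read proportions per bin multiplied by bin number.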
row,Variant,protein stability index
1,TSECPSTKDKSPESHKAKNESWIK,3.14
2,TSECPSVKDKSPESHKAKNESWIK,3.52
3,TSECPSWKDKSPESHKAKNESWIK,2.58
4,TSECPSYKDKSPESHKAKNESWIK,2.85
5,TSECPSDADKSPESHKAKNESWIK,3.08
6,TSECPSDCDKSPESHKAKNESWIK,3.52
7,TSECPSDDDKSPESHKAKNESWIK,3.35
8,TSECPSDEDKSPESHKAKNESWIK,4.41
9,TSECPSDFDKSPESHKAKNESWIK,3.68
10,TSECPSDGDKSPESHKAKNESWIK,4.03
11,TSECPSDHDKSPESHKAKNESWIK,3.15
12,TSECPSDIDKSPESHKAKNESWIK,3.48
13,TSECPSDLDKSPESHKAKNESWIK,3.38
14,TSECPSDMDKSPESHKAKNESWIK,3.52
15,TSECPSDNDKSPESHKAKNESWIK,3.31
16,TSECPSDPDKSPESHKAKNESWIK,3.38
17,TSECPSDQDKSPESHKAKNESWIK,3.52
18,TSECPSDRDKSPESHKAKNESWIK,3.95
19,TSECPSDSDKSPESHKAKNESWIK,3.84
20,TSECPSDTDKSPESHKAKNESWIK,3.45
21,TSECPSDVDKSPESHKAKNESWIK,3.62
22,TSECPSDWDKSPESHKAKNESWIK,2.99
23,TSECPSDYDKSPESHKAKNESWIK,3.26
24,TSECPSDKAKSPESHKAKNESWIK,2.68

row,Variant,protein stability index
1,TSECPSDKCKSPESHKAKNESWIK,2.46
2,TSECPSDKEKSPESHKAKNESWIK,3
3,TSECPSDKFKSPESHKAKNESWIK,2.16
4,TSECPSDKGKSPESHKAKNESWIK,3.42
5,TSECPSDKHKSPESHKAKNESWIK,3.18
6,TSECPSDKKKSPESHKAKNESWIK,2.25
7,TSECPSDKLKSPESHKAKNESWIK,2.54
8,TSECPSDKMKSPESHKAKNESWIK,3.28
9,TSECPSDKNKSPESHKAKNESWIK,2.94
10,TSECPSDKPKSPESHKAKNESWIK,3.39
11,TSECPSDKQKSPESHKAKNESWIK,3.27
12,TSECPSDKRKSPESHKAKNESWIK,2.62
13,TSECPSDKSKSPESHKAKNESWIK,3.11
14,TSECPSDKTKSPESHKAKNESWIK,3.34
15,TSECPSDKVKSPESHKAKNESWIK,2.9
16,TSECPSDKWKSPESHKAKNESWIK,2.98
17,TSECPSDKYKSPESHKAKNESWIK,2.64
18,TSECPSDKDASPESHKAKNESWIK,3.64
19,TSECPSDKDCSPESHKAKNESWIK,3.95
20,TSECPSDKDDSPESHKAKNESWIK,4.02
21,TSECPSDKDESPESHKAKNESWIK,4
22,TSECPSDKDFSPESHKAKNESWIK,3.72
23,TSECPSDKDGSPESHKAKNESWIK,2.63
24,TSECPSDKDHSPESHKAKNESWIK,3.53

row,Variant,protein stability index
1,TSECPSDKDISPESHKAKNESWIK,3.25
2,TSECPSDKDLSPESHKAKNESWIK,4.2
3,TSECPSDKDMSPESHKAKNESWIK,3.63
4,TSECPSDKDNSPESHKAKNESWIK,3.73
5,TSECPSDKDPSPESHKAKNESWIK,3.3
6,TSECPSDKDQSPESHKAKNESWIK,3.46
7,TSECPSDKDRSPESHKAKNESWIK,2.81
8,TSECPSDKDSSPESHKAKNESWIK,3.41
9,TSECPSDKDTSPESHKAKNESWIK,3.04
10,TSECPSDKDVSPESHKAKNESWIK,2.75
11,TSECPSDKDWSPESHKAKNESWIK,2.28
12,TSECPSDKDYSPESHKAKNESWIK,2.94
13,TSECPSDKDKAPESHKAKNESWIK,3.41
14,TSECPSDKDKCPESHKAKNESWIK,3.31
15,TSECPSDKDKDPESHKAKNESWIK,2.29
16,TSECPSDKDKEPESHKAKNESWIK,3.67
17,TSECPSDKDKFPESHKAKNESWIK,2.98
18,TSECPSDKDKGPESHKAKNESWIK,3
19,TSECPSDKDKHPESHKAKNESWIK,3.01
20,TSECPSDKDKIPESHKAKNESWIK,3.2
21,TSECPSDKDKKPESHKAKNESWIK,3.81
22,TSECPSDKDKLPESHKAKNESWIK,3.04
23,TSECPSDKDKMPESHKAKNESWIK,3.26
24,TSECPSDKDKNPESHKAKNESWIK,3.7

row,Variant,protein stability index
1,TSECPSDKDKPPESHKAKNESWIK,3.52
2,TSECPSDKDKQPESHKAKNESWIK,1.92
3,TSECPSDKDKRPESHKAKNESWIK,2.92
4,TSECPSDKDKTPESHKAKNESWIK,3.85
5,TSECPSDKDKVPESHKAKNESWIK,2.96
6,TSECPSDKDKWPESHKAKNESWIK,3.26
7,TSECPSDKDKYPESHKAKNESWIK,2.5
8,TSECPSDKDKSAESHKAKNESWIK,2.87
9,TSECPSDKDKSCESHKAKNESWIK,3.62
10,TSECPSDKDKSDESHKAKNESWIK,3.83
11,TSECPSDKDKSEESHKAKNESWIK,3.15
12,TSECPSDKDKSFESHKAKNESWIK,2.44
13,TSECPSDKDKSGESHKAKNESWIK,3.48
14,TSECPSDKDKSHESHKAKNESWIK,3.44
15,TSECPSDKDKSIESHKAKNESWIK,3.21
16,TSECPSDKDKSKESHKAKNESWIK,2.86
17,TSECPSDKDKSLESHKAKNESWIK,2.77
18,TSECPSDKDKSMESHKAKNESWIK,3.19
19,TSECPSDKDKSNESHKAKNESWIK,3.3
20,TSECPSDKDKSQESHKAKNESWIK,3.79
21,TSECPSDKDKSRESHKAKNESWIK,1.66
22,TSECPSDKDKSSESHKAKNESWIK,2.54

# Source: the supplement of paper PMC10567573
